Experimental data reported in US6124449.

Assays:
[1] = biological target: TGF-beta1 (hTGF-beta1) (Homo sapiens) (UniProt P01137); assay: cell_activity; settings: 2'-F C and U; MLEC assay; sequence contains N; column inferred
[2] = biological target: TGF-beta1 (hTGF-beta1) (Homo sapiens) (UniProt P01137); assay: filter

Sequence of TGF-beta1 (hTGF-beta1) (Homo sapiens) (P01137 279-390): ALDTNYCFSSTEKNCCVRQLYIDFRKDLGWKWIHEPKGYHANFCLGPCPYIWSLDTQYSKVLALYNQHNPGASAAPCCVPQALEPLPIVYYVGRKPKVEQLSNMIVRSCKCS

GGGAGGACGAUGCGGGACCNUUGUNUGCGAUUCAACUCGUAGGUCUUCUCACGUGCAGACGACUCGCCCGA [40-75]
Ki [1]: 2.25 nM

GGGAGGACGAUGCGGNNNNNNNNNNNNNNNNNNNNNNNNNNNNNNNNNNNNNNNNCAGACGACUCGCCCGA [random 40N7 RNA pool]
Kd ([2]; 2'-F C and U (RNA transcript of template), random 2'-F RNA, DPBS, 1 mM MgCl2, 37 C): 10 nM

GGGAGGACGAUGCGGUUAACCNUAAAUACGGCUUGANUUCUUCCGCAGACGACUCGCCCGA [30-19]
Kd ([2]; 2'-F C and U, biphasic, Kd1 5.7±1.9 nM): 0.346 nM
